Here are results for one molecule from patent US20170320924A1 (UNIVERSITY OF YAMANASHI, published 2017).

The target of this assay is T1, human CLEC-2 (C-type lectin-like receptor 2) (human, UniProt Q9P126 1-229).
T1 construct: whole, on cells; also called T-REx human CLEC-2 expressing 293 cells
Briefly: column 'CLEC-2 binding' of the summary Table 10.

T1 sequence (Q9P126 whole entry): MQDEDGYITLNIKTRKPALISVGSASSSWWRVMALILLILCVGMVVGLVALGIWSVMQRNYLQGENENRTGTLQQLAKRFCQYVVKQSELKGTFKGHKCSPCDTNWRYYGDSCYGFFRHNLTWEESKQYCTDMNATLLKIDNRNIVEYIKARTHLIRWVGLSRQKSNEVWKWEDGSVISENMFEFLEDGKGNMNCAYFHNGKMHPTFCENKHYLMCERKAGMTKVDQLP

B1: mutant rhodocytin derived from cell No. 3 (R28A and K31A) (ligand)
alpha: GLEDCDFGWSPYDQHCYQAFNEQKTWDEAEKFCRAQENGAHLASIESNGEADFVSWLISQKDELADEDYVWIGLRAQNKEQQCSSEWSDGSSVSYENLIDLHTKKCGALEKLTGFRKWVNYYCEQMHAFVCKLLPY
beta: DCPSGWSSYEGHCYKPFNEPKNWADAEAFCALQPKHSHLVSFQSAEEADFVVKLTRPRLKANLVWMGLSNIWHGCNWQWSDGARLNYKDWQEQSECLAFRGVHTEWLNMDCSSTCSFVCKFKA
modifications: α and β subunits are disulfide-linked. BN-PAGE shows a heterotrimer; each distinct subunit is given once.
notes: also called R28A, K31A
Regarding B1, the binding result is “binds”.
